Measured values published in US5693476.
“And” between values parts separate entries of the source, which are not always exact repeats. Equal values may be shown once.

How the values were obtained:
[1] = target: GST-syntaxin 1A deletion mutant Syn 1A17 (amino acids 4-240) (Schistosoma japonicum; rat); assay: 20S complex on GST-Syn 1A17 beads, ATP and Mg++, Western blot densitometry
[2] = target: GST-syntaxin 1A cytoplasmic domain fusion protein (Syn 1A11, amino acids 4-266), immobilized on glutathione agarose beads (Schistosoma japonicum; rat); assay: 20S complex on GST-Syn 1A11 beads, ATP and MgCl2, Western blot densitometry
[3] = target: GST (glutathione-S-transferase) alone, immobilized on glutathione agarose beads (Schistosoma japonicum) [GST: P08515]; assay: GST pull-down on glutathione agarose beads, Western blot (anti-α-SNAP), densitometry, FIG. 3
[4] = target: GST-SNAP-25, immobilized on glutathione agarose beads (Schistosoma japonicum; mouse); assay: as above
[5] = target: GST-VAMP (full cytoplasmic domain of VAMP), immobilized on glutathione agarose beads (Schistosoma japonicum; rat); assay: as above
[6] = target: GST-syntaxin 1A cytoplasmic domain fusion protein (Syn 1A11, amino acids 4-266), immobilized on glutathione agarose beads (Schistosoma japonicum; rat); assay: as above
[7] = target: GST-syntaxin 1A H3 domain construct Syn 1A16 (amino acids 191-266) (Schistosoma japonicum; rat); assay: 20S complex assembly on GST-syntaxin beads with all four proteins together, ATPγS, 18° C. overnight MgCl2, Western blot densitometry, FIG. 6B
[8] = target: GST-syntaxin 1A cytoplasmic domain fusion protein (Syn 1A11, amino acids 4-266), immobilized on glutathione agarose beads (Schistosoma japonicum; rat); assay: as above
[9] = target: GST-syntaxin 1A deletion mutant Syn 1A13 (amino acids 4-221) (Schistosoma japonicum; rat); assay: as above
[10] = target: GST-syntaxin 1A deletion mutant Syn 1A17 (amino acids 4-240) (Schistosoma japonicum; rat); assay: as above
[11] = target: GST-syntaxin 1A deletion mutant Syn 1A6 (amino acids 4-190) (Schistosoma japonicum; rat); assay: as above
[12] = target: GST-syntaxin 1A cytoplasmic domain fusion protein (Syn 1A11, amino acids 4-266), immobilized on glutathione agarose beads (Schistosoma japonicum; rat); assay: 20S complex on GST-Syn 1A11 beads, ATP and Mg++, Western blot densitometry

His-tagged α-SNAP (soluble NSF attachment protein), soluble recombinant, sequence (P81125 whole entry): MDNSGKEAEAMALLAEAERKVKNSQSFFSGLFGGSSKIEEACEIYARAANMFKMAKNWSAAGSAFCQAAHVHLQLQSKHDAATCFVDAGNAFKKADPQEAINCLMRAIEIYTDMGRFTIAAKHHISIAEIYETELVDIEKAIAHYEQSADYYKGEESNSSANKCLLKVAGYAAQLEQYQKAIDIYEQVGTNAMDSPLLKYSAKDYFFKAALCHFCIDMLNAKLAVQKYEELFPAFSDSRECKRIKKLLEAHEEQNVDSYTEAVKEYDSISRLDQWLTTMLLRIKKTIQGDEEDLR

Substance | percent dissociated in the presence of ATP and Mg++ [1] | percent dissociated from syntaxin following ATP hydrolysis by NSF [2] | densitometry pixel value [3] | densitometry pixel value [4] | densitometry pixel value [5] | densitometry pixel value [6] | densitometry pixel value [7] | densitometry pixel value [8] | densitometry pixel value [9] | densitometry pixel value [10] | densitometry pixel value [11] | percent remaining associated with the GST-syntaxin beads [12]
His-tagged α-SNAP (soluble NSF attachment protein), soluble recombinant (from UniProt P81125) | 25% | 70% and 90% | 0 pixel value | 33 pixel value | 8 pixel value | 1830 pixel value | 1420 pixel value | 1040 pixel value | 0 pixel value | 1070 pixel value | 0 pixel value | 
SNAP-25 (synaptosomal-associated protein of 25 kDa), soluble recombinant | 0% |  |  |  |  |  | 504 pixel value | 85 pixel value | 1340 pixel value | 415 pixel value | 0 pixel value | 90%
VAMP (vesicle-associated membrane protein; VAMP 2), soluble recombinant | 0% | 80% and 90% |  |  |  |  | 944 pixel value | 691 pixel value | 1310 pixel value | 812 pixel value | 0 pixel value | 
